Experimental data published in PMC12048676.

How the values were obtained:
[1] = biological target: prenylated A647-Cdc42 (human) (UniProt P60953)
[2] = biological target: biotin-Cy3-Cdc42 (geranylgeranylated) (human) (UniProt P60953); test: single-molecule dual-color TIRF microscopy, co-recruitment; 100 pM biotin-Cy3-Cdc42:A647-RhoGDI1 complex, imaged <2 min after dilution, captured on neutravidin-coated biotin-PEG coverslips; 50 mM HEPES pH 7.5, 50 mM NaCl, 2 mM MgCl2; 22 ms per frame; 23 °C
RhoGDI1 (Homo sapiens) = RhoGDI1 (Homo sapiens) (UniProt P52565); details: cited from earlier work
[3] = biological target: geranylgeranylated Cy3-Cdc42 (human) (UniProt P60953)
[4] = biological target: prenylated A647-Cdc42 (human) (UniProt P60953); remark: listed apart in the source
[5] = biological target: prenylated A647-Cdc42 (human) (UniProt P60953); remark: listed apart in the source

UniProt P52565, sequence (P52565 2-204): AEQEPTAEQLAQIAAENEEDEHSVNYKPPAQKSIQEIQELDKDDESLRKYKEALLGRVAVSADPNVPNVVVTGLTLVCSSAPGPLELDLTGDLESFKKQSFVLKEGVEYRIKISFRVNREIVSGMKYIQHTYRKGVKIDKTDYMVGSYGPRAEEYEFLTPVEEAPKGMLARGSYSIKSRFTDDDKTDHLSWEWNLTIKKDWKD
Cdc42, sequence (P60953 1-188): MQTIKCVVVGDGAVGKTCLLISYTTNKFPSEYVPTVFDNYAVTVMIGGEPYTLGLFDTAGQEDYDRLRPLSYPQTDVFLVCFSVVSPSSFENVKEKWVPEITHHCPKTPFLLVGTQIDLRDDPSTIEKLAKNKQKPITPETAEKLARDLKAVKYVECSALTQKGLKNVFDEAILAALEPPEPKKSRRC

A488-2xwCRIB (from UniProt P42768 201-268; P42768 201-268) (domain or fragment)
dwell time of A647-Cdc42 on the membrane inside the GEF-containing region in microfluidic flow-out, with 2xwCRIB [1]: 1.4 fold

A647-RhoGDI1 (from UniProt P19803 1-204) (natural protein)
fraction of Cdc42 molecules co-recruited with RhoGDI1 [2]: 63%

Cdc42 (from UniProt P60953)
Kd (RhoGDI1 (Homo sapiens)): 0.09 nM

RhoGDI1 (unlabeled) (from UniProt P19803 1-204) (natural protein)
maximal rate of nucleotide exchange (Cy5-GDP to unlabeled GDP) from Cy5-GDP:Cy3-Cdc42:RhoGDI1 complexes (100 nM) with ITSNcat-His10 pre-bound to PM LUVs, GEF concentration varied [3]: 0.0002 s⁻¹
concentration of Cdc42:RhoGDI1 complexes against free Cdc42 needed to reach similar levels of membrane-bound GTPase on SLBs (600 nM vs 5.5 nM) [4]: 100 fold

full-length Atto488-N-WASP (from UniProt O00401 1-505) (natural protein)
patterning index of A647-Cdc42 (inside against outside of GEF-containing areas) after GEF addition in the presence of Atto488-N-WASP [5]: 1.35
